In patent publication US20240209093A1 (I MAB BIOPHARMA, published 2024):

T1: His-tagged human TIGIT-ECD protein (human, UniProt Q495A1 22-141)
T1 construct: extracellular domain; also called hTIGIT-his
T1 sequence (looked up): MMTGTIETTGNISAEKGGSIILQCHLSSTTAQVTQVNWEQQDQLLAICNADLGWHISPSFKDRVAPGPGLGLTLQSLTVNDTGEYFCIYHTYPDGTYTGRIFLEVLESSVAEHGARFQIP


Columns and labels:
human PD-L1-his [1] = molecular target: T2, human PD-L1-his (human, UniProt Q9NZQ7 19-238); test: SPR, Biacore, full kinetics, antigen 100-1.5625 nM
T2 construct: also called hPD-L1-his; human His-PD-L1
T2 sequence (Q9NZQ7 19-238 limits assumed): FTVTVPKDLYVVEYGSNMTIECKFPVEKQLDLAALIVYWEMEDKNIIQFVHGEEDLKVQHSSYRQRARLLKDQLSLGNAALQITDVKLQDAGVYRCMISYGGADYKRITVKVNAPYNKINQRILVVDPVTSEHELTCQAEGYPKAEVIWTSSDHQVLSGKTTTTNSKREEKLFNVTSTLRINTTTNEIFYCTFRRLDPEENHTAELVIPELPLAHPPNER

human PD-L1-his [2] = molecular target: T2, human PD-L1-his; test: SPR, Biacore T200
Tag1-CD47 = molecular target: T3, Tag1-CD47 (UniProt Q08722 19-139); test: HTRF CD47/SIRPα binding assay (Cisbio): blocking of Tag2-SIRPa binding to Tag1-CD47; axis numbers -3 to 3 read as log10 of nM
T3 construct: Bought kit reagent
T3 sequence (Q08722 19-139 limits assumed): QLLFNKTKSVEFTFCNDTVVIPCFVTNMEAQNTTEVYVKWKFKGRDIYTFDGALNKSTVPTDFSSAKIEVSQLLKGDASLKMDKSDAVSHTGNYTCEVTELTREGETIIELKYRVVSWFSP
Excerpt: Fluorescence data were read on a PerkinElmer Envision plate reader using laser as light source.

human PD-L1-his [3] = molecular target: T2, human PD-L1-his; test: SPR, Biacore T200, antibody captured on protein A chip, hPD-L1-his 6.25-100 nM as analyte
Description: The binding affinity of the PD-L1/TIGIT bsAb to recombinant human his-tagged PD-L1 protein was tested by BIACORE®. […] A series of dilutions of human PD-L1 protein (6.25 nM-100 nM) were injected over captured antibody at a flow rate of 10 μL/min. The antigen was allowed to associate for 180 s and dissociate for 1200 s. All the experiments were carried out on a Biacore T200. Data analysis was carried out using Biacore T200 evaluation software.

[4] = molecular target: T1, His-tagged human TIGIT-ECD protein; test: SPR, Biacore T200, antibody captured on protein A chip, hTIGIT-his 0.78-12.5 nM as analyte
Excerpt: The antibodies were captured by Protein A chip. […] The association phase was 180 s and the dissociation phase was 1200 s.

[5] = molecular target: T1, His-tagged human TIGIT-ECD protein; test: ELISA on His-tagged human TIGIT
human PD-L1-his [6] = molecular target: T2, human PD-L1-his; test: ELISA, plate coated with human His-PD-L1, detection goat anti-human IgG Fc HRP [panel A]
Excerpt: Binding of the anti-PD-L1/TIGIT bsAb molecules with human PD-L1 was further analyzed by ELISA.

Binder	Kd (human PD-L1-his [1]) [nM]	koff (human PD-L1-his [1]) [s⁻¹]	kon (human PD-L1-his [1]) [M⁻¹ s⁻¹]	other results
112-VHH5-PTM (VHH, Humanized) VHH: EVQLVESGGGLVQPGGSLRLSCAASGSIFSSGTQFSDSKIDWYRQAPGKQRDWVAGIFSTGSTIYEDSVKGRFAISRDNAKNSLYLQMNSLRAEDTAVYYCRVIGRGILAWGQGTLVTVSS	0.92	0.00149	1.62e+06	
112-VHH3-PTM (VHH, Humanized) VHH: EVQLVESGGGLVQPGGSLRLSCAASGSIFSSGTQFSDSKIDWYRQAPGKQREWVSGIFSTGSTIYEDSVKGRFTISRDNAKNSLYLQMNSLRAEDTAVYYCRVIGRGILAWGQGTLVTVSS	2.4	0.00498	2.07e+06	
112-VHH7-PTM (VHH, Humanized) VHH: EVQLVESGGGLVQPGGSLRLSCAASGSIFSSGTQFSDSKIDWYRQAPGKQREWIAGIFSTGSTIYEDSVKGRFAISRDNAKNMLYLQMNSLRAEDTAVYYCRVIGRGILAWGQGTLVTVSS	2.32	0.00393	1.69e+06	
ALP-Tan-3p-112 (VHH) VHH: QVQLVESGGGLVQPGGSLRLSCAASGSIFSSGTNFSDSKIDWYRQAPGKQRDWIAGIFSTGSTIYEDSVKGRFAISRDNAKNMGYLQMNSLKPEDTAVYYCRVIGRGILAWGQGTQVTVSS				Kd (human PD-L1-his [2]): 0.479 nM; koff (human PD-L1-his [2]): 0.000235 s⁻¹; kon (human PD-L1-his [2]): 490000 M⁻¹ s⁻¹
ALP-Tan-3p-112 (chimeric) (antibody, V domains shown, not shown: a dimerising Fc or GST; small tags and cut ends, Called chimeric) VH: QVQLVESGGGLVQPGGSLRLSCAASGSIFSSGTNFSDSKIDWYRQAPGKQRDWIAGIFSTGSTIYEDSVKGRFAISRDNAKNMGYLQMNSLKPEDTAVYYCRVIGRGILAWGQGTQVTVSS	0.264	0.000566	2.14e+06	
ALP-Tan-3p-93 (chimeric) (antibody, V domains shown, not shown: a dimerising Fc or GST; small tags and cut ends, Called chimeric; also called ALP-Tan-3p-93 chimeric antibody) VH: QVQLVESVGGLVQPGDSLRLSCLASGRTFTFRHYVMGWFRQAPGKEREFVAAISWSGSGSYYADSVKGRFTISRDNSKNMVFLQMNGLKPEDTAVYYCAADMTTRMSQASREYDYWGQGTQVTVSS	0.559	0.000107	192000	
93-VH-8 (VHH, Humanized) VHH: EVQLVESGGGLVQPGGSLRLSCAASGRTFTFRHYVMGWFRQAPGKGLEFVAAISWSGSGSYYADSVKGRFTISRDNSKNTVYLQMNSLRAEDTAVYYCAADMTTRMSQASREYDYWGQGTLVTVSS	1.8	0.000239	133000	
34C5 (antibody, V domains shown, also called anti-CD47 antibody 34C5; parental CD47 antibody 34C5) VH: QVQLVQSGAEVKKPGSSVKVSCKASGYTFSSYYMHWVRQAPGQGLEWMGEINPNNARINFNEKFKTRVTLTVDKSTSTAYMELSSLRSEDTAVYYCTRGYYRYGAWFGYWGQGTLVTVSS VL: DIQMTQSPSSLSASVGDRVTITCRASQDISDYLNWYQQKPGKAPKLLIYYISRLHSGVPSRFSGSGSGTDYTLTISSLQPEDFATYYCQQGHTLPWTFGGGTKVEIK				IC50 (read off the curve) (Tag1-CD47): ~0.7 nM
13H3 (antibody, V domains shown, also called anti-CD47 antibody 13H3; parental CD47 antibody 13H3) VH: EVQLVESGGGLVKPGGSLRLSCAASGLTFERAWMNWVRQAPGKGLEWVGRIKRKTDGETTDYAAPVKGRFSISRDDSKNTLYLQMNSLKTEDTAVYYCAGSNRAFDIWGQGTMVTVSS VL: DIVMTQSPDSLAVSLGERATINCKSSQSVLYAGNNRNYLAWYQQKPGQPPKLLINQASTRASGVPDRFSGSGSGTEFTLIISSLQAEDVAIYYCQQYYTPPLAFGGGTKLEIK				IC50 (read off the curve) (Tag1-CD47): ~1 nM
TIGIT-Fc-93-VH6 (bispecific antibody, human IgG1, kappa, Two 93-VH6 fused to the C-termini of the anti-TIGIT heavy chains; also called TIGIT-Fc-PD-L1 format) heavy: not shown light: DIVMTQSPSSLSASVGDRVTITCKASQDVDTAVAWYQQKPGKAPKLLIYWASARHTGVPSRFSGSGSGTDFTFTISSLQPEDIATYYCQQYSNYPLTFGQGTKLEIKRTVAAPSVFIFPPSDEQLKSGTASVVCLLNNFYPREAKVQWKVDNALQSGNSQESVTEQDSKDSTYSLSSTLTLSKADYEKHKVYACEVTHQGLSSPVTKSFNRGEC				Kd (human PD-L1-his [3]): 1.15 nM; koff (human PD-L1-his [3]): 4.25e-05 s⁻¹; kon (human PD-L1-his [3]): 37100 M⁻¹ s⁻¹; Kd [4]: 0.112 nM; koff [4]: 0.000139 s⁻¹; kon [4]: 1.24e+06 M⁻¹ s⁻¹; EC50 (read off the curve) [5]: ~0.5 nM; EC50 (read off the curve) (human PD-L1-his [6]): ~2 nM
TIGIT-Fc-93-VH6*2 (bispecific antibody, human IgG1, kappa, Four 93-VH6, two in tandem at the C-terminus of each anti-TIGIT heavy chain; also called TIGIT-Fc-PD-93-VH6*2; TIGIT-Fc-PD-L1*2 format) heavy: not shown light: DIVMTQSPSSLSASVGDRVTITCKASQDVDTAVAWYQQKPGKAPKLLIYWASARHTGVPSRFSGSGSGTDFTFTISSLQPEDIATYYCQQYSNYPLTFGQGTKLEIKRTVAAPSVFIFPPSDEQLKSGTASVVCLLNNFYPREAKVQWKVDNALQSGNSQESVTEQDSKDSTYSLSSTLTLSKADYEKHKVYACEVTHQGLSSPVTKSFNRGEC				Kd (human PD-L1-his [3]): 5.4 nM; koff (human PD-L1-his [3]): 0.000118 s⁻¹; kon (human PD-L1-his [3]): 21900 M⁻¹ s⁻¹; Kd [4]: 0.0912 nM; koff [4]: 0.000131 s⁻¹; kon [4]: 1.43e+06 M⁻¹ s⁻¹; EC50 (read off the curve) [5]: ~0.6 nM; EC50 (read off the curve) (human PD-L1-his [6]): ~0.8 nM
TIGIT antibody (antibody, V domains shown, Only variable domains are tied to the parental antibody; also called TIGIT Ab; parental TIGIT antibody) VH: EVKLVESGGGLVQPGGSLRLSCAASGFTFSDYYMYWVRQAPGKRLEWVASITKGGGSTYYPDTLKGRFTISRDNAKNSLYLQMNRLRAEDTAVYYCARQSSYDFVMDYWGQGTTVTVSS VL: DIVMTQSPSSLSASVGDRVTITCKASQDVDTAVAWYQQKPGKAPKLLIYWASARHTGVPSRFSGSGSGTDFTFTISSLQPEDIATYYCQQYSNYPLTFGQGTKLEIK				Kd [4]: 0.144 nM; koff [4]: 0.000172 s⁻¹; kon [4]: 1.19e+06 M⁻¹ s⁻¹; EC50 (read off the curve) [5]: ~0.2 nM
ASP-3P-46 (VHH, also called ASP-30-46) VHH: QVQLVESGGGLVQPGGSLRLSCAASARSINGMEWYRQAPGERRELVAGITAGGSAYYTDTVKGRFTISRDNAENTGYLQMNSLSPDDTAVYYCRRQYGPNWYWGQGTQVTVSS				Kd (human PD-L1-his [2]): 1.81 nM; koff (human PD-L1-his [2]): 0.00128 s⁻¹; kon (human PD-L1-his [2]): 710000 M⁻¹ s⁻¹
93-VH-2 (VHH, Humanized) VHH: EVQLVESGGGLVQPGGSLRLSCAASGFTFTFRHYVMGWVRQAPGKEREWVSAISWSGSGSYYADSVKGRFTISRDNSKNTVYLQMNSLRAEDTAVYYCAADMTTRMSQASREYDYWGQGTLVTVSS	26.3	0.00162	61500	
93-VH-3 (VHH, Humanized) VHH: EVQLVESGGGLVQPGGSLRLSCAASGFTFTFRHYVMGWFRQAPGKGLEFVAAISWSGSGSYYADSVKGRFTISRDNSKNTLYLQMNSLRAEDTAVYYCAKDMTTRMSQASREYDYWGQGTLVTVSS	2.36	0.00115	486000	
93-VH-4 (VHH, Humanized) VHH: EVQLVESGGGLVQPGGSLRLSCAASGFTFTFRHYVMGWFRQAPGKGLEFVAAISWSGSGSYYADSVKGRFTISRDNSKNTVYLQMNSLRAEDTAVYYCAADMTTRMSQASREYDYWGQGTLVTVSS	1.82	0.000147	80500	
93-VH-5 (VHH, Humanized) VHH: EVQLVESGGGLVQPGGSLRLSCAASGFTFTFRHYVMGWFRQAPGKEREFVAAISWSGSGSYYADSVKGRFTISRDNSKNTLYLQMNSLRAEDTAVYYCAKDMTTRMSQASREYDYWGQGTLVTVSS	2.77	0.00125	452000	
93-VH-7 (VHH, Humanized) VHH: EVQLVESGGGLVQPGGSLRLSCAASGFTFTFRHYVMGWFRQAPGKGLEFVAAISWSGSGSYYADSVKGRFTISRDNSKNTLYLQMNSLRAEDTAVYYCAADMTTRMSQASREYDYWGQGTLVTVSS	3.87	0.000339	87600	
ALP-Tan-3p-93 (VHH) VHH: QVQLVESVGGLVQPGDSLRLSCLASGRTFTFRHYVMGWFRQAPGKEREFVAAISWSGSGSYYADSVKGRFTISRDNSKNMVFLQMNGLKPEDTAVYYCAADMTTRMSQASREYDYWGQGTQVTVSS				Kd (human PD-L1-his [2]): 0.459 nM; koff (human PD-L1-his [2]): 7.8e-05 s⁻¹; kon (human PD-L1-his [2]): 154000 M⁻¹ s⁻¹
93-VH-9 (VHH, Humanized) VHH: EVQLVESGGGLVQPGGSLRLSCAASGRTFTFRHYVMGWFRQAPGKGLEFVAAISWSGSGSYYADSVKGRFTISRDNSKNTLYLQMNSLRAEDTAVYYCAADMTTRMSQASREYDYWGQGTLVTVSS	2.2	0.00031	140000	
